Data reported in paper PMC5762417.

What was measured:
[1] = target: Rev (Human immunodeficiency virus 1) (UniProt P04325); test: fluorescence binding; conditions: cited from earlier work
[2] = target: Rev WT, labelled with Alexa 555 (HIV-1) (UniProt P04616); test: fluorescence polarisation
DDX21 = test: EMSA

Question: With DDX1 DEAD domain (from UniProt Q92499) as the molecule, how does the Kd [1] read?
Answer: The Kd was 0.079 µM.

Question: With “DDX3 (from UniProt O00571 1-662) (enzyme)” as the molecule, how does the Kd [2] read?
Answer: Its Kd is 0.122 µM.

Question: With “DDX3 DEAD domain (aa 211-403) (from UniProt O00571 211-403) (domain or fragment)” as the molecule, how does the Kd [2] read?
Answer: The Kd was 0.2 µM.

Question: Which Kd (DDX21) does the source give for RRE RNA (EMSA) here?
Answer: Its Kd is 0.037 µM.

B1: DDX21 (enzyme)
chain: MPGKLRSDAGLESDTAMKKGETLRKQTEEKEKKEKPKSDKTEEIAEEEETVFPKAKQVKKKAEPSEVDMNSPKSKKAKKKEEPSQNDISPKTKSLRKKKEPIEKKVVSSKTKKVTKNEEPSEEEIDAPKPKKMKKEKEMNGETREKSPKLKNGFPHPEPDCNPSEAASEESNSEIEQEIPVEQKEGAFSNFPISEETIKLLKGRGVTFLFPIQAKTFHHVYSGKDLIAQARTGTGKTFSFAIPLIEKLHGELQDRKRGRAPQVLVLAPTRELANQVSKDFSDITKKLSVACFYGGTPYGGQFERMRNGIDILVGTPGRIKDHIQNGKLDLTKLKHVVLDEVDQMLDMGFADQVEEILSVAYKKDSEDNPQTLLFSATCPHWVFNVAKKYMKSTYEQVDLIGKKTQKTAITVEHLAIKCHWTQRAAVIGDVIRVYSGHQGRTIIFCETKKEAQELSQNSAIKQDAQSLHGDIPQKQREITLKGFRNGSFGVLVATNVAARGLDIPEVDLVIQSSPPKDVESYIHRSGRTGRAGRTGVCICFYQHKEEYQLVQVEQKAGIKFKRIGVPSATEIIKASSKDAIRLLDSVPPTAISHFKQSAEKLIEEKGAVEALAAALAHISGATSVDQRSLINSNVGFVTMILQCSIEMPNISYAWKELKEQLGEEIDSKVKGMVFLKGKLGVCFDVPTASVTEIQEKWHDSRRWQLSVATEQPELEGPREGYGGFRGQREGSRGFRGQRDGNRRFRGQREGSRGPRGQRSGGGNKSNRSQNKGQKRSFSKAFGQ
Question: Which Kd [2] does the source give for B1 here?
Answer: Its Kd is 0.021 µM.

B2: DDX21 DEAD domain (aa 217-396) (domain or fragment)
chain: FHHVYSGKDLIAQARTGTGKTFSFAIPLIEKLHGELQDRKRGRAPQVLVLAPTRELANQVSKDFSDITKKLSVACFYGGTPYGGQFERMRNGIDILVGTPGRIKDHIQNGKLDLTKLKHVVLDEVDQMLDMGFADQVEEILSVAYKKDSEDNPQTLLFSATCPHWVFNVAKKYMKSTYEQ
Question: For B2, which Kd [2] is on record?
Answer: The Kd was 0.06 µM.

B3: DDX21(183-620) (domain or fragment)
chain: QKEGAFSNFPISEETIKLLKGRGVTFLFPIQAKTFHHVYSGKDLIAQARTGTGKTFSFAIPLIEKLHGELQDRKRGRAPQVLVLAPTRELANQVSKDFSDITKKLSVACFYGGTPYGGQFERMRNGIDILVGTPGRIKDHIQNGKLDLTKLKHVVLDEVDQMLDMGFADQVEEILSVAYKKDSEDNPQTLLFSATCPHWVFNVAKKYMKSTYEQVDLIGKKTQKTAITVEHLAIKCHWTQRAAVIGDVIRVYSGHQGRTIIFCETKKEAQELSQNSAIKQDAQSLHGDIPQKQREITLKGFRNGSFGVLVATNVAARGLDIPEVDLVIQSSPPKDVESYIHRSGRTGRAGRTGVCICFYQHKEEYQLVQVEQKAGIKFKRIGVPSATEIIKASSKDAIRLLDSVPPTAISHFKQSAEKLIEEKGAVEALAAALAHISG
Question: Which Kd [2] does the source give for B3 here?
Answer: The Kd was 0.048 µM.

B4: DDX1 (enzyme)
chain: MAAFSEMGVMPEIAQAVEEMDWLLPTDIQAESIPLILGGGDVLMAAETGSGKTGAFSIPVIQIVYETLKDQQEGKKGKTTIKTGASVLNKWQMNPYDRGSAFAIGSDGLCCQSREVKEWHGCRATKGLMKGKHYYEVSCHDQGLCRVGWSTMQASLDLGTDKFGFGFGGTGKKSHNKQFDNYGEEFTMHDTIGCYLDIDKGHVKFSKNGKDLGLAFEIPPHMKNQALFPACVLKNAELKFNFGEEEFKFPPKDGFVALSKAPDGYIVKSQHSGNAQVTQTKFLPNAPKALIVEPSRELAEQTLNNIKQFKKYIDNPKLRELLIIGGVAARDQLSVLENGVDIVVGTPGRLDDLVSTGKLNLSQVRFLVLDEADGLLSQGYSDFINRMHNQIPQVTSDGKRLQVIVCSATLHSFDVKKLSEKIMHFPTWVDLKGEDSVPDTVHHVVVPVNPKTDRLWERLGKSHIRTDDVHAKDNTRPGANSPEMWSEAIKILKGEYAVRAIKEHKMDQAIIFCRTKIDCDNLEQYFIQQGGGPDKKGHQFSCVCLHGDRKPHERKQNLERFKKGDVRFLICTDVAARGIDIHGVPYVINVTLPDEKQNYVHRIGRVGRAERMGLAISLVATEKEKVWYHVCSSRGKGCYNTRLKEDGGCTIWYNEMQLLSEIEEHLNCTISQVEPDIKVPVDEFDGKVTYGQKRAAGGGSYKGHVDILAPTVQELAALEKEAQTSFLHLGYLPNQLFRTF
Question: For B4, which Kd [2] is on record?
Answer: The Kd was 0.041 µM.
